This is an account of results in patent US20110223176A1 (AbbVie / Abbott, published 2011).

The target in assay [1] is T1, human BSG2 (basigin isoform 2) on the cell surface (human, UniProt P35613 140-385).
T1 sequence: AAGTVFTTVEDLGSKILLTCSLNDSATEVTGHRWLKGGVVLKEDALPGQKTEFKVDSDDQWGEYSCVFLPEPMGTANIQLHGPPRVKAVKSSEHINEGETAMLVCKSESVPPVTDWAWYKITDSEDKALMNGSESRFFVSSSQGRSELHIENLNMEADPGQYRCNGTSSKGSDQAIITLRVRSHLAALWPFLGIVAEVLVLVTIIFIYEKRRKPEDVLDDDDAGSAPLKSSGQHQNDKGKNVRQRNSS
The assay can be described thus: cell-based or functional assay.

The target of assay [2] is T1, human BSG2 (basigin isoform 2) on the …. Briefly: cell-based or functional assay. The source holds these as a separate data set.
Assay [3] has the same target. The assay can be described thus: flow cytometry (FACS) on BAF3 cells expressing human BSG2. How it is done:
Stable cell lines overexpressing cell-surface BSG2 or human tumor cell lines were harvested from tissue culture flasks, washed three times and resuspended in phosphate buffered saline (PBS) containing 1% bovine serum albumin and 1 mM CaCl₂ (FACS buffer). 5×10⁵ cells were incubated with antibodies at various concentrations in FACS buffer for 60 minutes on ice. Cells were washed twice and the bound murine monoclonal antibody was detected with a goat Fab′2 anti-mouse IgM+IgG+IgA (H+L) R-phycoerythrin-conjugated antibody (Southern Biotechnology Associates, Inc., Birmingham, Ala., Catalog No. 1012-08) diluted 1:500. Following incubation on ice (4° C., 60 minutes), cells were washed three times and resuspended in FACS buffer. Fluorescence was measured using a Becton Dickinson FACSCalibur-HTS (Becton Dickinson, San Jose, Calif., US). Data were analyzed using Graphpad Prism software and EC₅₀ values were reported as the concentration of antibody to achieve 50% of maximal BSG2 antibodies binding to BSG2 expressing cells.
(In general: Flow cytometry measures light scatter and fluorescence of single cells or particles in a stream.)

The target of assay [4] is T2, cynomolgus monkey BSG2 on the cell surface (cynomolgus monkey).
T2 construct: whole, on cells; also called BAF3-cyno BSG2; Cyno BSG2
The assay can be described thus: cell-based ECL (MSD) binding on whole cells expressing cynomolgus BSG2. How it is done:
Cells were plated at 25,000 cells/well in 25 μl PBS using 96 well MSD high binding plates (MSD, catalogue no. L11XB-3), and incubated at 37° C. for 1 hour. 25 μl/well of blocking solution (30% serum in PBS) was added to the plates for 30 minutes at room temperature with mild agitation. Plates were then incubated with 25 μl/well of BSG2 antibodies (10 μg/ml) diluted in assay buffer (10% serum in PBS) for 1 hour at room temperature with mild agitation, and then washed 3× with PBS. Goat anti-mouse or anti-human IgG sulfotag was added at 1 μg/ml for 1 hour with mild agitation, and plates were washed 3× with PBS. After the final wash, plates were incubated with 2×MSD surfactant-free read buffer (catalogue no. R92TD-2) and the signal was detected on a MSD SECTOR Imager 6000. Data were analyzed using Graphpad Prism software and EC₅₀ values were reported.
BSG2 antibody binding activities against whole cells expressing human or cynomolgus monkey BSG2 were assessed by ECL using MSD technology (described in Example 1.3) and the receptor binding assay (described in Example 1.4) and are shown in Table 11.

For assay [5], the target named is T1, human BSG2 (basigin isoform 2) on the …. The assay can be described thus: receptor binding assay, Eu-labeled antibody on cells expressing human BSG2. How it is done:
Cell lines expressing BSG2 were harvested and washed once in assay buffer (PBS, 0.1% BSA, 0.02% Na Azide, 10 mM EDTA) and resuspended to 5×10⁶ cells per mL. Serial 1:2 dilutions of ⁺³Eu-labeled anti-BSG2 antibody stock in assay buffer were made for final concentrations ranging from 1.6×10⁻⁸-7.7×10⁻¹² M, and a 4 mg/mL solution of unlabeled anti-BSG2 antibody was also prepared. To 96 well round bottom plates, 25 μl of ⁺³Eu-labeled antibody dilutions were added to 25 μl buffer (total counts), or 25 μl of unlabeled antibody were added to 25 μl buffer (background counts). 50 μl of cells at 2.5×10⁵ cells per well were then added to all samples, mixed gently, and incubated on ice for 1 hour. Cell bound antibody was then separated from unbound antibody by transferring 20 μL of the reaction mixture to Acrowell 96 well filter plates (Pall PN 5020), centrifuged for 5 min (2200 rpm), washed 3× with 150 μL cold assay buffer, and centrifuged for 5 min. Signal was determined by incubating samples with 150 μL/well of enhancement buffer and read using Envision. The specific counts were determined by subtracting the background counts (cells+labeled antibody+excess cold antibody) from the corresponding total counts (cells+labeled antibody) for each antibody concentration. The labeled antibody concentration versus total counts was analyzed using Graphpad Prism 4 to calculate Kd and Bmax values.

B1: mouse anti-human BSG2 monoclonal antibody ML64-6A11-3A3 (antibody, mouse IgG2a, V domains shown)
VH: EVKLEESGGGLVQPGGSMKLSCVASGFTFSNFWMDWVRQSPEKGLEWIAGIRLKSYNYATHYAESVKGRFTISRDDSKSSVYLQMNNLRAEDTGIYYCTDWDGAYWGQGTLVTVSA
VL: DIVMTQSHKFMSTSVGDRVSITCKASQDVSTDVAWYQQKPGQSPKLLIYSASYRYTGVPDRFTGSGSGTDFTFTISSVQAEDLAVYYCQQHYSTPFTFGSGTKLEIK
notes: Hybridoma antibody, mouse IgG2a/kappa; also called 6A11-3A3 parental mouse antibody; Ab 3A3
B1: in assay [1], the “CDC assay (% killing at 10 µg/ml Ab), MiaPaCa-2 pancreatic cancer cells” value came out at 84 % killing. In addition, in assay [2], the “Mitochondrial membrane potential, fold decrease against Neg control IgG2a, MiaPaCa cells” value amounted to 2.5 fold decrease and the “ph-Akt, fold decrease against Neg control IgG2a, MiaPaCa cells” value stood at 2 fold decrease. Further, in assay [3], the EC50 (usually the concentration giving half of the maximal effect) was 0.41 nM. Also, the EC50 in assay [4] was found to be 7.6 nM. Binding in assay [5] was characterised by a dissociation constant (Kd) of 2 nM.
